In the supplement of paper PMC6755084:

B1: minF1; a variant is named by its letters at N, in order (parent)
chain: GAGACCGCAACTGAAAAGTTGTTNNNNAANNNNGGNTNNATTTCTGCACGTAGAAGCAAAAGGC

Variants of: B1
Assay: fraction ligated after 30 min (ligated reads / total reads); higher = more ligase activity
Conditions: with F1*subA RNA substrate (template-directed ligation), 42 °C
Experimental: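 Chip-synthesised pool of minF1 ligase ribozyme variants (single and double substitutions, single to quadruple deletions, bulge and P2 designed variants) was transcribed with T7 and reacted as a pool with excess substrate F1*subA for 30 min at 42 C in 50 mM EPPS pH 8.5, 25 mM MgCl2. Ligated and unligated RNAs were separated by PAGE, barcoded by RT and deep sequenced; fraction ligated = ligated reads / total reads, relative activity = FL / FL of wild-type minF1 (0.76); sequencing FL correlated with PAGE (R2 = 0.98). Sequences are the DNA template of the ribozyme.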

Row | Variant | fraction ligated
1 | TCAGGGAGTGA | 0.00359
2 | CAAAGGATTGA T23A A29T | 0.00487
3 | ACAGATATGTG | 0.00478
4 | CGAAGATGTGA T23A A29T | 0.00299
5 | TCAATGGAGTG G34T | 0.0438
6 | TCAGATGAGTA T23A | 0.00194
7 | CAGAGATGTGA T23A A29T | 0.00283
8 | CGAAGGAGTGA A29T | 0.00331
9 | TCGAGATGTGA A28T A29G | 0.00721
10 | ATCGAGGAGTA | 0.00327
11 | TCGATGGAGTG T23A | 0.02
12 | TCAGATGGGTT G34T T37G A40G | 0.000744
13 | ACAGATGGGTA G34T | 0.00288
14 | TCAATGGAGTT T23A G34T T37G A40G | 0.00124
15 | ATCGATGTTGA | 0.00239
16 | TCAATGGTGTA T23A | 0.00153
17 | ATCGATGGGTT G34A G35T T37G | 0.00178
18 | ATCAATGGGTT G34T T37G A40G | 0.00223
19 | ACAGATGGTGA | 0.00375
20 | ATAGGGATGTG | 0.00618
21 | TCGAGGATTGA T23A A29T | 0.00747
22 | TCGAGGATTGA | 0.00327
23 | AGAAGGATGTG T23C A29T | 0.00819
24 | ATCAAAGGGTT A28G G34T T37G A40G | 0.000216

Row | Variant | fraction ligated
25 | ATCAGGTGTGA A29T | 0.00874
26 | TCAGAGGAGTG T23A | 0.0042
27 | ATAGATGGGTT G34A T37G A40G | 0
28 | ACAGATGAGTA | 0.00413
29 | ATCAATGGTGA | 0.0039
30 | AGAAGATGTGA A29G | 0.00203
31 | TCAGATGATGA | 0.00144
32 | TCGATGAGTGA | 0.00207
33 | TCAAGGATTGA T23A A29T | 0.00443
34 | ATAAGGATGTG A29T | 0.00947
35 | TCAGAGGTGTG | 0.00329
36 | ATAGATGGGTA G34T | 0.00288
37 | TCGATGGTTGA T23A | 0.00216
38 | TCGAGGAGTGA | 0.00338
39 | TCAGATGTGTA T23A | 0.00304
40 | ATCGTGGAGTT G34T T37G | 0.00145
41 | ATAGGGTGTGA A29T | 0.00231
42 | TAAAGGTGTGA T23A A29T | 0.00275
43 | ATCGTGGAGTG | 0.00496
44 | ATCGTGGAGTA | 0.00217
45 | TCAGTGTGTGA T23A | 0.00289
46 | AAAAGATGTGA A29G | 0.00274
47 | TAAAGGATTGA T23A A29T | 0.00317
48 | AAGATGGAGTT G34T T37G A40G | 0.0006

Row | Variant | fraction ligated
49 | ACAATGGAGTT G34T T37G | 0.00166
50 | TCAGAGTGTGA | 0.00219
51 | AGAAGGATGTG A29T | 0.00505
52 | TAGAGATGTGA | 0.00183
53 | TCAAGGATGTG T23A | 0.00539
54 | ATAAGATGTGA A29G | 0.00765
55 | ATCGATGGTGA | 0.00498
56 | TAGAGGAGTGA T23A A29T | 0.00307
57 | TCAAGGTGTGA A29T | 0.00119
58 | ATGATGATTGA | 0.00379
59 | CAGATGGGTGA | 0.00455
60 | ATCAGGATTGA A28G A29T | 0.00153
61 | ATAGAGATGTA | 0.00327
62 | ATAGAGATGTG | 0.00764
63 | TCGAGGATGTA | 0.00168
64 | TCGAGGATGTG | 0.00804
65 | ATCGTGATGTA | 0.00285
66 | ATCAAGGAGTT G34T T37G A40G | 0.00198
67 | ATCAAAGGGTA A28G G34T | 0.00211
68 | ATCAAAGGGTA A28G G34A | 0.00347
69 | TCAGAGTGTGA T23A | 0.00281
70 | ACAGATGTGTA | 0.00227
71 | ACAGATGTGTG | 0.0127
72 | ATAGTGGAGTT G34T T37G | 0.00164

Row | Variant | fraction ligated
73 | AAAAGATGTGA T23C A28T A29G | 0.00238
74 | TAGAGATGTGA T23A A29G | 0.00131
75 | ACAGTGAGTGA | 0.00274
76 | TCGATGGAGTT T23A G34T T37G A40G | 0.00165
77 | TCAGTGATGTA T23A | 0.00165
78 | ATCAGGAGTGA A28G A29T | 0.0016
79 | ATCAAATAGTA A28G G34T | 0.00133
80 | ATCAATGAGTG G34T | 0.00509
81 | ATCAAATGTGA A28G | 0.00482
82 | ATCAATGGGTT G34A G35T T37G A40G | 0.00189
83 | TCAGATGGGTG G34T | 0.00277
84 | ATAATGGGTGA | 0.00329
85 | ACAGGGTGTGA | 0.00435
86 | TCAGGGTGTGA T23A | 0.00148
87 | ATCGAGATGTA | 0.00349
88 | ATCGAGATGTG | 0.0313
89 | TCAGTGGAGTG T23A G34T | 0.0406
90 | ATCAAAGGTGA A28G | 0.00196
91 | TCAAGGATGTA A29T | 0.00204
92 | ACAAGATGTGA A29T | 0.0029
93 | TCAGAGGAGTT T23A G34T T37G A40G | 0.000303
94 | TCAGATATGTG T23A | 0.00384
95 | TCAGATGAGTT T23A G34T T37G A40G | 0.00258
96 | ATCAAATTGTG A28G | 0.00512

Row | Variant | fraction ligated
97 | ACAAGGAGTGA A29T | 0.00407
98 | ACAGAGGATGA | 0.00191
99 | TCAATGTGTGA T23A | 0.00162
100 | TCAAGGATGTG | 0.00569
101 | TCAAGGATGTA | 0.0017
102 | TAGAGATGTGA A28T A29G | 0.00491
103 | TCGAGGTGTGA T23A | 0.00322
104 | ATCGATGAGTG | 0.00474
105 | ATCGATGGGTA G34T | 0.00207
106 | AGAAGATGTGA T23A A29G | 0.00362
107 | TCAGATGAGTG T23A G34T | 0.00649
108 | ATCGATGAGTT G34T T37G | 0.00178
109 | TCGATGGAGTG T23A G34T | 0.25
110 | ATAGAGGTGTG | 0.00428
111 | TCAGAGGAGTA T23A G34T | 0.0014
112 | TCAGATGTGTG | 0.00413
113 | TCAGAGGAGTA G34T | 0.00236
114 | TCAGGGATTGA T23A A29T | 0.0045
115 | ATCGTGGAGTA G34T | 0.0058
116 | TCAATGGTGTG | 0.00437
117 | ATCATGATGTG | 0.0143
118 | TCGATGGAGTA G34T | 0.143
119 | ATCAATGAGTG | 0.00492
120 | ATCAATGTGTA | 0.00707

Row | Variant | fraction ligated
121 | ATCAAGGAGTA G34T | 0.00413
122 | ATAATGGAGTT G34T T37G A40G | 0.00113
123 | TCGATGATTGA T23A | 0.00304
124 | ATAAGGATTGA A29T | 0.00367
125 | ATCAAAGAGTA A28G G34T | 0.00276
126 | ATAAGGTGTGA | 0.00238
127 | CAGAGGATTGA | 0.00276
128 | TCAGTATGTGA T23A | 0.00284
129 | CAGATGGAGTG G34T | 0.0137
130 | TCAAGATGTGA A28T A29G | 0.00257
131 | ATCATGGAGTA | 0.00426
132 | ATCATGGAGTG | 0.00597
133 | ACGATGATTGA | 0.00224
134 | ATCAGGATGTG A29T | 0.0272
135 | TAAAGATGTGA T23A A29T | 0.00358
136 | ACAGATGGGTG G34T | 0.00406
137 | ATCGATAGTGA | 0.00296
138 | ATCGTGAGTGA | 0.00262
139 | ATAATGGTGTG | 0.00419
140 | ATAATGGTGTA | 0.00235
141 | TCAGGGATTGA | 0.00138
142 | TCAGATGGGTT G34A T37G | 0.00135
143 | TCAATGGAGTG T23A G34T | 0.0342
144 | ATCAGGATTGA A29T | 0.00634

Row | Variant | fraction ligated
145 | TCAGATGGGTT T23A G34T T37G A40G | 0.00157
146 | ATCAATGGGTA A28G G34T | 0.00241
147 | ACAGATTGTGA | 0.00539
148 | TCAGAGGGTGA T23A | 0.004
149 | TCGAGGATGTG T23A A29T | 0.0128
150 | AAAAGGATTGA A29T | 0.00197
151 | CGAAGGATTGA A29T | 0.00943
152 | ACAATGGTGTA | 0.00264
153 | ATCGAGGAGTG G34T | 0.00393
154 | ATCAATATGTA A28G | 0.00429
155 | ATCGAGAGTGA | 0.00383
156 | AGAAGATGTGA A28T A29G | 0.00743
157 | TCGAGGTGTGA T23A A29T | 0.00169
158 | TAGAGGTGTGA A29T | 0.00319
159 | CGAAGGATGTA A29T | 0.00492
160 | TCAGAGGTTGA T23A | 0.000867
161 | TCGATGGAGTA T23A G34T | 0.139
162 | TCAGTGGTGTA T23A | 0.00153
163 | ACGATGGAGTA G34T | 0.0869
164 | ATCAAGATGTA | 0.00295
165 | CAGATGGAGTA G34T | 0.00644
166 | CAGATGGAGTG T23A | 0.00354
167 | AAGAGATGTGA A28T A29G | 0.00397
